In patent US20150080549A1 (Chugai, published 2015) one finds Kd and ECL signal data, which are given here for 7 molecules.

The labels stand for the following.
T1: biotinylated Interleukin-6 receptor (IL-6R) (human, UniProt P08887 20-344, limits assumed, biotinylated (method of BMC biotechnology, 2008, 8, 41 and Protein Science, 1999, 8, 921-929); site not stated)
T1 construct: also called human IL-6 receptor; hIL-6R
T1 sequence (looked up): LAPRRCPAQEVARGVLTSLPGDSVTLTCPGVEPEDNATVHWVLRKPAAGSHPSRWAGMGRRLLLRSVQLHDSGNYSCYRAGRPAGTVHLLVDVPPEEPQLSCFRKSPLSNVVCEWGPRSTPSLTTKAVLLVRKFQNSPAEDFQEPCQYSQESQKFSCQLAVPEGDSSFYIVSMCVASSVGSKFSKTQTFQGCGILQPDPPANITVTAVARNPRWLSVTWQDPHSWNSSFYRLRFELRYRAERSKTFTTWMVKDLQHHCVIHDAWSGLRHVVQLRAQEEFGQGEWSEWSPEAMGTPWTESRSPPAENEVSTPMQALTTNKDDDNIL

T2: biotinylated Recombinant Human TNFR1/Fc Chimera (SinoBiological, Catalog Number 10872-H03H) (human, UniProt P19438 22-211, biotinylated with EZ-Link NHS-PEG4-Biotin (Thermo scientific 21329); sites not stated)
T2 construct: Bought Fc chimera; also called tumor necrosis factor receptor 1; Fc part of the bought chimera not given
T2 sequence (looked up): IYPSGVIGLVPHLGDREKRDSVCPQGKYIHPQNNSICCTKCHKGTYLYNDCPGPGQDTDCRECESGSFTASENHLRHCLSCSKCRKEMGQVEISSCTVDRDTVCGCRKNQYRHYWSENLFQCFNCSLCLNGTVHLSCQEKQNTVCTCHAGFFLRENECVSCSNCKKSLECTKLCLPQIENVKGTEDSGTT

B1: Compound SP859 (peptide)
peptide: APVI[NMeF][Met(O2)]P[NMePhe(3-Cl)]V[Met(O2)]DP[Sar]S-{NH(CH2)2NMe2}
modifications: lactam N-11
notes: Made from Compound SP854 by amidation of the C-terminal carboxylic acid
B2: Compound SP856 (peptide)
peptide: [γEtAbu]IVW[NMePhe(3-Cl)][Met(O2)]P[NMePhe(3-Cl)][dY][Met(O2)]D[NMeAla(4-thiazolyl)][NMeA]S-OH
modifications: lactam N-11
SMILES: CC[C@H](C)[C@@H]1NC(=O)CCCN(CC)C(=O)C[C@@H](C(=O)N(C)[C@@H](Cc2cscn2)C(=O)N(C)[C@@H](C)C(=O)N[C@@H](CO)C(=O)O)NC(=O)[C@H](CCS(C)(=O)=O)NC(=O)[C@@H](Cc2ccc(O)cc2)NC(=O)[C@H](Cc2cccc(Cl)c2)N(C)C(=O)[C@@H]2CCCN2C(=O)[C@H](CCS(C)(=O)=O)NC(=O)[C@H](Cc2cccc(Cl)c2)N(C)C(=O)[C@H](Cc2c[nH]c3ccccc23)NC(=O)[C@H](C(C)C)NC1=O
notes: Chemically synthesized, HPLC purified
B3: Compound SP855 (peptide)
peptide: AII[NMeAla(4-thiazolyl)]WP[NMePhe(3-Cl)][Met(O2)][dY][βAla]DP[NMePhe(3-Cl)]S-OH
modifications: lactam N-11
SMILES: CC[C@H](C)[C@@H]1NC(=O)[C@H](C)NC(=O)C[C@@H](C(=O)N2CCC[C@H]2C(=O)N(C)[C@@H](Cc2cccc(Cl)c2)C(=O)N[C@@H](CO)C(=O)O)NC(=O)CCNC(=O)[C@@H](Cc2ccc(O)cc2)NC(=O)[C@H](CCS(C)(=O)=O)NC(=O)[C@H](Cc2cccc(Cl)c2)N(C)C(=O)[C@@H]2CCCN2C(=O)[C@H](Cc2c[nH]c3ccccc23)NC(=O)[C@H](Cc2cscn2)N(C)C(=O)[C@H]([C@@H](C)CC)NC1=O
notes: as for B2
B4: Compound SP854 (peptide)
peptide: APVI[NMeF][Met(O2)]P[NMePhe(3-Cl)]V[Met(O2)]DP[Sar]S-OH
modifications: lactam N-11
SMILES: CC[C@H](C)[C@@H]1NC(=O)[C@H](C(C)C)NC(=O)[C@@H]2CCCN2C(=O)[C@H](C)NC(=O)C[C@@H](C(=O)N2CCC[C@H]2C(=O)N(C)CC(=O)N[C@@H](CO)C(=O)O)NC(=O)[C@H](CCS(C)(=O)=O)NC(=O)[C@H](C(C)C)NC(=O)[C@H](Cc2cccc(Cl)c2)N(C)C(=O)[C@@H]2CCCN2C(=O)[C@H](CCS(C)(=O)=O)NC(=O)[C@H](Cc2ccccc2)N(C)C1=O
notes: as for B2
B5: SEQ ID NO: PE-4 (TNFR1 binder) peptide (peptide)
peptide: A[dY]IW[Met(O2)]S[Met(O2)][NMePhe(3-Cl)]V[NMeF]DT[NMePhe(3-Cl)]SGSGSGS-{FlPu(urea)}
modifications: lactam N-11; reading uncertain
notes: Translated in ECL Translation Solution T, cyclized and desulfurized; not isolated; also called translation product of template DNA DME-4
B6: SEQ ID NO: PE-6 (TNFR1 binder) peptide (peptide)
peptide: AP[Sar]VITV[NMeS][Phg]SD[NMeA][NMePhe(3-Cl)]SGSGSGS-{FlPu(urea)}
modifications: lactam N-11; reading uncertain
notes: Translated in ECL Translation Solution T, cyclized and desulfurized; not isolated; also called translation product of template DNA DME-6
B7: SEQ ID NO: PE-5 (TNFR1 binder) peptide (peptide)
peptide: AP[Sar]IIVS[NMeS][Phg][Phg]D[NMeAla(4-thiazolyl)]TSGSGSGS-{FlPu(urea)}
modifications: lactam N-11; reading uncertain
notes: Translated in ECL Translation Solution T, cyclized and desulfurized; not isolated; also called translation product of template DNA DME-5

Starred links: 1 amine or outer side, 2 acyl side, 3 side chain; linkers in the order of their positions; H or OH if unused. Positions of bridges follow the written chain, without caps; N, C: chain ends. Non-standard residues stand in square brackets, D forms with d. γEtAbu = 4-(ethylamino)butanoic acid, CCN(CCCC(=O)[*:2])[*:1]; NMeAla(4-thiazolyl) = CN[C@@H](Cc1cscn1)C(=O)O; NMePhe(3-Cl) = CN[C@@H](Cc1cccc(Cl)c1)C(=O)O; Met(O2) = CS(=O)(=O)CC[C@H](N)C(=O)O; NMeF = CN[C@@H](Cc1ccccc1)C(=O)O; FlPu(urea) = not defined here; Phg = N[C@H](C(=O)O)c1ccccc1; NMeS = CN[C@@H](CO)C(=O)O; NMeA = CN[C@@H](C)C(=O)O; βAla = NCCC(=O)O; Sar = CNCC(=O)O

What is called Kd is the constant that tells how readily two partners part at equilibrium.

The first experiment addresses T1, biotinylated Interleukin-6 receptor …. In words: SPR, Biacore T200, 20 C; biotinylated IL-6R captured on sensor chip CAP, peptide as analyte; KD=koff/kon from curve fitting. The protocol: An SPR experiment for analyzing the interaction between synthetic peptides and IL-6R was conducted using Biacore T200 (GE healthcare) at 20° C. Synthetic peptides were added to the immobilized IL-6R, and the interaction was evaluated.
CAP reagent was immobilized on a Biacore sensor chip, Series S sensor chip CAP (GE healthcare), according to the instructions, and biotinylated IL-6R was further immobilized.
The obtained sensorgrams were analyzed using T200 evaluation software (GE healthcare) or Scrubber2 (Biologic software). First, solvent correction for DMSO and double reference (correction by subtracting sensorgrams of flow cells where IL-6R was not immobilized and sensorgrams in the case where the buffer was added) were carried out. Second, binding rate constants (kₒₙ) and dissociation rate constants (koff) were calculated from curve fitting to the corrected sensorgrams, and KDs were determined by the relational expression KD=koff/kₒₙ.
In general terms: In SPR one partner is held on a chip, and binding of the other changes the refractive index at the surface.
As to B1, the Kd was 0.55 µM.

B2 showed a dissociation constant Kd of 13 µM.

With B3, the Kd stood at 5.3 µM.

In turn, B4 had a Kd of 1.8 µM.

A further experiment addresses T2, biotinylated Recombinant Human TNFR1/Fc …. Briefly: ECL immunoassay (MSD): biotinylated target on streptavidin plate, translated FlPu(urea)-labelled cyclic peptide (Translation Solution T), anti-fluorescein and SULFO-TAG anti-mouse antibody; no-template control 293. The protocol: 0.5 μl of a 200 mM EDTA solution (pH 8.0, Nacalai, 14362-24) and 0.5 μl of a 100 mM TCEP solution (pH 6.6) were added to 5 μL of the translation mixture, and the mixture was incubated at 37° C. for 120 minutes to cause cyclization reaction. 11 μL of desulfurization buffer (15 mM cysteine, 36 mM TCEP) was added to the cyclization product, and the mixture was incubated at 42° C. for 1 minutes, after which 4 μL of 1 M VA-044 (Wako, CAS No. 27776-21-2) was added and the mixture was allowed to stand at 42° C. for 1 hour.
Immunoassay was carried out using the above peptide solution for ECL assay. 500 nM biotinylated target protein was added at 10 μL per well to MSD Streptavidin MULTI-ARRAY 384-well plate (Meso Scale Discovery, L25SB-1), and reaction was conducted at room temperature for 1 hour with shaking at 500 rpm to immobilize the target protein. 2% skim milk PBS was added at 50 μL per well, and blocking was carried out by allowing to stand at room temperature for 2 hours. The reaction solution was removed and the plate was washed with PBS containing 0.05% Tween 20 (PBST) three times, after which 10 μL of the peptide solution for ECL assay was added and the plate was shaken at room temperature for 50 minutes at 500 rpm. The reaction solution was removed and the plate was washed with PBST three times, after which 10 μL of IgG Fraction Monoclonal Mouse Anti-Fluorescein (Jackson ImmunoResearch, 200-002-037) diluted to 0.5 μg/mL with 2% skim milk PBS was added, and reaction was conducted at room temperature for 50 minutes with shaking at 500 rpm. […] The reaction solution was removed and the plate was washed with PBST three times, after which 35 μl, of 2× Read Buffer T (Meso Scale Discovery, R92TC-3) was added and measurement was carried out using SECTOR Imager 2400 (Meso Scale Discovery).
Consider B5, for which the ECL signal was 32000.

Consider B6, for which the ECL signal stood at 3610.

Regarding B7, the ECL signal came to 3760.
